From patent publication US20090305339A1, “Polypeptides With Laccase Activity” (VIALACTIA BIOSCIENCES (NZ) LIMITED, priority 2006, published 2009)

Legend:
[1] = substrate: COc1cccc(OC)c1O; assay: Steady-state kinetics of RL5 laccase, spectrophotometric oxidation of laccase substrates; assay type: biochemical, bovine rumen metagenome; details: other: 40° C., pH 4.5, 14 nM protein, substrate 0 to 1 mM
Experimental: (§2) Protein concentrations were determined according to Bradford (31), with BSA as standard.
(§3) Laccase activity was determined spectrophotometrically in a thermostated spectrophotometer (Perkin-Elmer) at 40° C. in 100 mM sodium citrate buffer, pH 4.5 (1 ml). The standard assay was performed at 530 nm, using SGZ as the oxidation substrate (ε530=64,000 M^−1cm^−1). The reaction was started by adding SGZ, from a stock solution in methanol, to a final concentration of 20 μM. […] Catalytic constants were derived by fitting the experimental data onto the Michaelis-Menten model. Control measurements without enzyme were carried out to correct for possible chemical oxidation of the substrates.

[2] = substrate: COc1cc(/C=N/N=C/c2cc(OC)c(O)c(OC)c2)cc(OC)c1O; assay: as above; assay type: biochemical, bovine rumen metagenome; details: other: 40° C., pH 4.5, 14 nM protein, substrate 0 to 1 mM
Experimental: as §2, §3

[3] = substrate: CCn1c(=NN=c2sc3cc(S(=O)(=O)O)ccc3n2CC)sc2cc(S(=O)(=O)O)ccc21; assay: purified protein, by the assay type; details: other: 40° C., pH 4.5, 14 nM protein, substrate 0 to 1 mM
[4] = Laccase activity, spectrophotometric, DMP as substrate; assay type: biochemical; details: data not shown
Experimental: (§1) Laccase activity was determined spectrophotometrically in a thermostated spectrophotometer (Perkin-Elmer) at 40° C. in 100 mM sodium citrate buffer, pH 4.5 (1 ml). The standard assay was performed at 530 nm, using SGZ as the oxidation substrate (ε530=64,000 M^−1cm^−1). The reaction was started by adding SGZ, from a stock solution in methanol, to a final concentration of 20 μM. […] Oxidation of phenol red (75 μM) was determined by the decrease in absorbance at 432 nm. The activity:pH and activity:temperature relationships were determined by incubating the enzyme:substrate mixtures at different pH values and constant temperature (40° C.), and at different temperatures (15-80° C.) and constant pH (4.5), respectively. Catalytic constants were derived by fitting the experimental data onto the Michaelis-Menten model. Control measurements without enzyme were carried out to correct for possible chemical oxidation of the substrates.

[5] = Oxidative reactions of various compounds (substrate preference, overall kinetics, pH range); assay type: biochemical; details: order of oxidized substrates
Experimental: as §1

[6] = Laccase activity, veratryl alcohol as substrate; assay type: biochemical; details: data not shown
Experimental: as §1

[7] = pH- and temperature-dependent activity and inactivation profiles; assay type: biochemical; details: sodium citrate pH 4.5, 1 mM SGZ or DMP
Experimental: FIG. 2A represents the effect of various pH values on the activity of recombinant purified RL5 laccase. The activity was measured at 40° C. using 1 mM SGZ (syringaldazine) or DMP as substrate. The buffers (100 mM) used were: citrate (pH 3.0-5.5), MES (pH 5.5-7.0), HEPES (pH 7.0-8.0), Tris-HCl (pH 8.0-9.0) and glycine-NaOH (pH 9.0-12). The activity of RL5 for DMP reached an optimum at a broad pH ranging from 3.5-9.0, being optimal at 4.0-5.0; however, it maintained more than 70% activity at pH 3.5 and 9.0 (FIG. 2A).
FIG. 2B represents the pH inactivation of purified RL5 laccase in sodium citrate pH 4.5 (indicated with “∘”) or glycine-NaOH pH 9.0 (indicated with “[…]”) over a time period of 240 min. 100% activity in the purified protein sample equals 7.2 units/mg (measured at 40° C.).
FIG. 2C represents the effect of the temperature on the activity of recombinant purified RL5 laccase. The enzyme activity was assayed at each indicated temperature in sodium citrate pH 4.5 in the presence of 1 mM SGZ or DMP. Activity was monitored at 420 nm. Protein activity increased as the temperature was raised to a maximum at ˜60° C. Therefore, RL5 is stable at high temperatures.
FIG. 2D represents the thermal inactivation of purified RL5 laccase. Purified enzyme was incubated in vials at 60° C. ([…]) or 65° C. (∘). At the indicated times, samples were withdrawn and tested for laccase activity at 40° C. by using SGZ or DMP as a substrate. 100% activity in the purified protein sample equals 17.2 units/mg.
Corresponding experiments were performed with BT4389 and YfiH under conditions as described above for FIGS. 2A to 2D (data not shown). The activity of these enzymes reached an optimum at a temperature of 52° C. (for BT4389) and 44° C. (for YfiH) and the thermal activity maintained for more than 80% at 55° C. (for BT4389) and at 50° C. (for YfiH). The activity of both enzymes reached an optimum at a pH range from 4.5 to 6.0 (for BT4389) and from 5.5 to 8.4 (for YfiH), although 80% activity maintained at pH 4.0 to 7.5 (for BT4389) and 5.0 to 9.0 (for YfiH).
as §1

[8] = Laccase activity, spectrophotometric, SGZ as substrate; assay type: biochemical; details: data not shown
Experimental: as §1

[9] = Laccase activity, guaiacol as substrate; assay type: biochemical; details: data not shown
Experimental: as §1

Molecule	Km [1]	kcat [1]	Km [2]	kcat [2]	Km [3]	kcat [3]	oxidation activity [4]	substrate preference [5]	oxidation activity [6]	temperature optimum of activity [7]	oxidation activity [8]	oxidation activity [9]
RL5 laccase (bovine rumen metagenome), wild type, FIG. 11 (unidentified prokaryotic organism) (protein) MIELEKLDFAKSVEGVEAFSTTRGQVDGRNAYSGVNLCDYVGDDALRVLDARLTLAMQLGVDLDDLVMPRQTHSCRVAVIDERFRALDIDEQEAALEGVDALVTRLQGIVIGVNTADCVPIVLVDSQAGIVAVSHAGWRGTVGRIAKAVVEEMCRQGATVDRIQAAMGPSICQDCFEVGDEVVEAFKKAHFNLNDIVVRNPATGKAHIDLRAANRAVLVAAGVPAANIVESQHCSRCEHTSFFSARRLGINSGRTFTGIYRK	0.45 µM	70443 min⁻¹	0.43 µM	39807 min⁻¹	26.2 µM	1083 min⁻¹						
YfiH: DUF152 domain containing hypothetical protein from Escherichia coli, Gene Bank AAG57706, identified as laccase (FIG. 13) (protein, listed as Escherichia coli, Description of sequence amino acid sequence of protein YfiH with unknown function DUF152 from Escherichia coli (Gene Bank accession number AAG57706) (see Fig. 13)) MSKLIVPQWPLPKGVAACSSTRIGGVSLPPYDSLNLGAHCGDNPDHVEENRKRLFAAGNLPSKPVWLEQVHGKDVLNLTGEPYASKRADASYSNTPGRVCAVMTADCLPVLFCNRAGTEVAAAHAGWRGLCAGVLEETVSCFADNPENILAWLGPAIGPRAFEVGAEVREAFMAVDAEASTAFIQHGDKYLADIYQLARQRLANVGVEQIFGGDRCTYTENETFFSYRRDKTTGRMASFIWLI							4 units/g protein	SGZ>DMP>>veratryl alcohol>>guaiacol	2.1 units/g protein	44 °C	5.6 units/g protein	0.5 units/g protein
